Numbered stars: 1 amine (or outer) side, 2 acyl side, 3 side chain; on linkers, the order of the positions; unused ones are H or OH. Bridge positions count the residues as written; N and C are the ends. Square brackets hold non-standard residues; d marks the D form. Primed or numbered codes have the meaning given here. Ends that are not written are not given here. * marks the point of attachment. Phe(4-OMe)″ = 4-methoxy-phenylalanine, COc1ccc(C[C@H](N[*:1])C(=O)[*:2])cc1; Phe(4-CF3) = N[C@@H](Cc1ccc(C(F)(F)F)cc1)C(=O)O; Phe(4-COOH) = N[C@@H](Cc1ccc(C(=O)O)cc1)C(=O)O; Phe(4-tBu) = CC(C)(C)c1ccc(C[C@H](N)C(=O)O)cc1; Phe(2,4-Cl2) = N[C@@H](Cc1ccc(Cl)cc1Cl)C(=O)O; Phe(2-CONH2) = NC(=O)c1ccccc1C[C@H](N)C(=O)O; Phe(4-CN) = N#Cc1ccc(C[C@H](N)C(=O)O)cc1; Phe(4-F) = N[C@@H](Cc1ccc(F)cc1)C(=O)O; Oleoyl = CCCCCCCC/C=C\CCCCCCCC(=O)*; NMeR = CN[C@@H](CCCNC(=N)N)C(=O)O; Palmitoyl = CCCCCCCCCCCCCCCC(=O)*; Myristoyl = CCCCCCCCCCCCCC(=O)*; Tic = O=C(O)[C@@H]1Cc2ccccc2CN1; β3hE = N[C@@H](CCC(=O)O)CC(=O)O; DIG = diglycolic acid (linker); Pen = CC(C)(S)[C@H](N)C(=O)O; Isovaleryl = CC(C)CC(=O)*; Hexanoyl = CCCCCC(=O)*

Data on 30 molecules can be found in patent US20220162261A1 (published 2022).

The target in this test is T1, human α4β7 integrin on cells (human, UniProt P13612 34-1032; P26010 20-798).
T1 construct: whole, on cells; also called α4β7 cell (Hu); RPMI8866 cells
The experiment in a line: RPMI8866 cell adhesion to MAdCAM-1.

B1: SEQ ID NO: 107 (peptide)
peptide: Ac-[Pen][NMeR]SDTL[Pen][Phe(4-F)][dE][dK]-NH2
modifications: disulfide 1-7; not fully specified (residue 10); printed as (Ac Pen N-Me-R S D T L Pen F(4-F) e k NH2)2 DIG, disulfide Pen-Pen; also: homodimer: two subunits joined by DIG linker
As to B1, the IC50 (as a rule, the concentration at which inhibition is half-maximal) was > 25 nM. The result for Isovaleryl-[Pen][NMeR]SDTL[Pen][Phe(4-tBu)][β3hE][dK]-NH2 (disulfide 1-7) [SEQ ID NO: 177] reads > 50 nM.

B2: SEQ ID NO: 122 (peptide)
peptide: Ac-[Pen][NMeR]SDTL[Pen][Phe(4-CF3)][dE][dK]-NH2
modifications: disulfide 1-7; not fully specified (residue 10); printed as (Ac Pen N-Me-R S D T L Pen F(4CF3) e k NH2)2 DIG, disulfide Pen-Pen; also: homodimer: two subunits joined by DIG linker
Regarding B2, the IC50 was > 50 nM. The result for Hexanoyl-[Pen][NMeR]SDTL[Pen][Phe(4-tBu)][β3hE][dK]-NH2 (disulfide 1-7) [SEQ ID NO: 176] reads > 50 nM.

B3: SEQ ID NO: 106 (peptide)
peptide: Ac-[Pen][NMeR]SDTL[Pen][Phe(4-tBu)][dE][dK]-NH2
modifications: disulfide 1-7; not fully specified (residue 10); printed as (Ac Pen N-Me-R S D T L Pen F(4tBu) e k NH2)2 DIG, disulfide Pen-Pen; also: homodimer: two subunits joined by DIG linker
For B3, the IC50 is ≤ 10 nM.

B4: SEQ ID NO: 98 (peptide)
peptide: Ac-[Pen][NMeR]SDTL[Pen][Phe(2-CONH2)][dE][dK]-NH2
modifications: disulfide 1-7; not fully specified (residue 10); printed as (Ac Pen N-Me-R S D T L Pen F(2-carbamoyl) e k NH2)2 DIG, disulfide Pen-Pen; also: homodimer (…)2 DIG: the two subunits are joined through the K10 NZ by the DIG linker
For the molecule B4, the IC50 was > 50 nM.

B5: SEQ ID NO: 186 (peptide)
peptide: Ac-[Pen][NMeR]SDIL[Pen][Phe(4-tBu)][β3hE][dK]-NH2
modifications: disulfide 1-7; not fully specified (residue 10); printed as (Ac Pen N-Me-R S D I L Pen F(4-tBu) b-H-E k NH2)2 IDA, disulfide Pen-Pen; also: homodimer: two subunits joined by IDA linker
As for B5, the IC50 was > 100 nM.

B6: SEQ ID NO: 193 (peptide)
peptide: Ac-[Pen][NMeR]SDDL[Pen][Phe(4-tBu)][β3hE][dK]-NH2
modifications: disulfide 1-7; also: homodimer via IDA linker on D-Lys10 side chains, Alexa-647 label
For the molecule B6, the IC50 was > 100000 nM. Under Ac-[Pen][NMeR]SDIL[Pen][Phe(4-tBu)][β3hE][dK]-NH2 (disulfide 1-7; also: homodimer via IDA linker carrying Alexa-647) [SEQ ID NO: 188] stands ≤ 10 nM; under Ac-[Pen][NMeR]SDTQ[Pen][Phe(4-tBu)][β3hE][dK]-NH2 (disulfide 1-7; also: homodimer: two subunits joined by IDA linker) [SEQ ID NO: 187], > 100 nM. The result for Ac-[Pen][NMeR]SDDL[Pen][Phe(4-tBu)][β3hE][dK]-NH2 (disulfide 1-7; also: homodimer via IDA linker on D-Lys10 side chains) [SEQ ID NO: 191] reads > 10000 nM; that for Ac-[Pen][NMeR]SDTL[Pen][Phe(4-tBu)][β3hE][dK](Palmitoyl) (disulfide 1-7) [SEQ ID NO: 172], 965 nM.

B7: SEQ ID NO: 103 (peptide)
peptide: Ac-[Pen][NMeR]SDTL[Pen][Phe(4-OMe)″][dE][dK]-NH2
modifications: disulfide 1-7; not fully specified (residue 10); printed as (Ac Pen N-Me-R S D T L Pen F(4-OMe) e k NH2)2 DIG; also: homodimer: two subunits joined by DIG linker
As for B7, the IC50 was > 25 nM. Ac-[Pen][NMeR]SDTL[Pen][Phe(4-tBu)][β3hE][dK](Oleoyl) (disulfide 1-7) [SEQ ID NO: 174]: the half-inhibitory concentration (IC50) was > 1000 nM.

For the molecule Ac-[Pen][NMeR]SDTL[Pen][Phe(4-tBu)][β3hE][dK](Hexanoyl) (disulfide 1-7) [SEQ ID NO: 170], the IC50 was > 10 nM.

B8: SEQ ID NO: 7 (peptide)
peptide: [Pen][NMeR]SDTL[Pen][dF]-NH2
modifications: disulfide 1-7; not fully specified (N-terminus); printed as DIG NH2 Pen N-Me-R S D T L Pen f NH2, disulfide Pen-Pen; also: DIG linker at N-terminus, number of subunits not shown
notes: N-terminal linker printed without dimer brackets
In the case of B8, the IC50 is > 1000 nM.

Turning to XRSDTLXW (Ac Pen N-Me-R S D T L Pen W OH; disulfide Pen-Pen) [SEQ ID NO: 127], the IC50 is > 100 nM.

B9: SEQ ID NO: 100 (peptide)
peptide: Ac-[Pen][NMeR]SDTL[Pen][Phe(4-COOH)][dE][dK]-NH2
modifications: disulfide 1-7; not fully specified (residue 10); printed as (Ac Pen N-Me-R S D T L Pen F(4-COOH) e k NH2)2 DIG; also: homodimer: two subunits joined by DIG linker
Regarding B9, the IC50 is ≤ 10 nM.

B10: SEQ ID NO: 128 (peptide)
peptide: Ac-[Pen][NMeR]SDTL[Pen]WE-OH
modifications: disulfide 1-7
SMILES: CC(=O)N[C@@H]1C(=O)N(C)[C@@H](CCCNC(=N)N)C(=O)N[C@@H](CO)C(=O)N[C@@H](CC(=O)O)C(=O)N[C@@H]([C@@H](C)O)C(=O)N[C@@H](CC(C)C)C(=O)N[C@H](C(=O)N[C@@H](Cc2c[nH]c3ccccc23)C(=O)N[C@@H](CCC(=O)O)C(=O)O)C(C)(C)SSC1(C)C
Regarding B10, the IC50 is > 50 nM.

B11: SEQ ID NO: 77 (peptide)
peptide: XRSDTLXWK
modifications: not fully specified; (Ac Pen N-Me-R S D T L Pen W N-Me-K NH2)2 DIG; disulfide Pen-Pen
On to B11, for which the IC50 was > 100 nM. Under XRSDTLXWK (not fully specified; (Ac Pen N-Me-R S D T L Pen W k OH)2 DIG; disulfide Pen-Pen) [SEQ ID NO: 76] stands > 10 nM.

B12: SEQ ID NO: 101 (peptide)
peptide: Ac-[Pen][NMeR]SDTL[Pen][Phe(2,4-Cl2)][dE][dK]-NH2
modifications: disulfide 1-7; not fully specified (residue 10); also: homodimer: two subunits joined by DIG linker
notes: F(2,4-ci) as printed
With B12, the IC50 was > 50 nM.

B13: SEQ ID NO: 93 (peptide)
peptide: Ac-[Pen][NMeR]SDTLC[Tic][dE][dK](DIG)-NH2
modifications: disulfide 1-7; also: homodimer (…)2 DIG: the two subunits are joined through the K10 NZ by the DIG linker
As for B13, the IC50 was > 500 nM.

B14: SEQ ID NO: 5 (peptide)
peptide: Ac-[dK]C[NMeR]SDTLCW[dK]-NH2
modifications: disulfide 2-8 (inferred); not fully specified; printed as DIG (Ac k C N-Me-R S D T L C W k NH2)2 DIG
notes: DIG printed at both ends
As for B14, the IC50 is > 50 nM. The result for Ac-[Pen][NMeR]SDTL[Pen][Phe(4-tBu)][β3hE][dK](4,4,4‑trifluorobutyryl) (disulfide 1-7) [SEQ ID NO: 169] reads > 10 nM; that for Ac-[Pen][NMeR]SDTL[Pen][Phe(4-tBu)][β3hE][dK](Isovaleryl) (disulfide 1-7) [SEQ ID NO: 171], > 10 nM; that for Ac-[Pen][NMeR]SDTL[Pen][Phe(4-tBu)][β3hE][dK](Myristoyl) (disulfide 1-7) [SEQ ID NO: 175], > 500 nM.

B15: SEQ ID NO: 139 (peptide)
peptide: Ac-[Pen][NMeR]SDTL[Pen][Phe(4-CN)][β3hE][dK]-NH2
modifications: disulfide 1-7; not fully specified (residue 10); printed as (Ac Pen N-Me-R S D T L Pen F(4-CN) b-H-E k NH2)2 DIG, disulfide Pen-Pen; also: homodimer, two subunits joined by DIG linker
Consider B15, for which the IC50 is ≤ 10 nM.

B16: SEQ ID NO: 6 (peptide)
peptide: C[NMeR]SDTLCW-NH2
modifications: disulfide 1-7 (inferred); not fully specified (N-terminus); printed as DIG NH2 C N-Me-R S D T L C W NH2; also: N-terminal DIG linker, number of subunits not shown
notes: as for B8
With B16, the IC50 was > 50 nM.

For the molecule Palmitoyl-[Pen][NMeR]SDTL[Pen][Phe(4-tBu)][β3hE][dK]-NH2 (disulfide 1-7) [SEQ ID NO: 178], the IC50 is > 1000 nM.
